The labels stand for the following.
B1: Azoarcus group I ribozyme (parent)
chain: GUGCCUUGCGCCGGGAAACCACGCAAGGGAUGGUGUCAAAUUCGGCGAAACCUAAGCGCCCGCCCGGGCGUAUGGCAACGCCGAGCCAAGCUUCGGCGCCUGCGCCGAUGAAGGUGUAGAGACUAGACGGCACCCACCUAAGGCAAACGCUAUGGUGAAGGCAUAGUCCAGGGAGUGGCGAAAGUCACACAAACCGG

This data set covers variants of B1. The data set is described as follows: reverse-splicing fitness (ratio to wild type); higher = more active; in vitro selection; Mg2+ level not given. In a few lines: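 An in vitro group I ribozyme library with randomized positions was T7-transcribed and gel-purified. In triplicate, 10 pmol RNA in EPPS pH 7.5 was reacted with 50 pmoles of a 30-nt RNA substrate for 1 h at 37 °C across several added MgCl2 levels (1–48 mM), then stopped with EDTA. Products were reverse transcribed from a substrate-complementary primer, PCR-amplified and sequenced (HiSeq 4000). Fitness is a variant's read proportion after selection over that before, normalised to wild type.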
For the variant C82G A111C A120U C169G U176A, the reverse-splicing fitness came out at 0.00344. For C82A A111U A120G A145U C169G, the reverse-splicing fitness came to 0.00975. With C82G A111U A145G, the reverse-splicing fitness stood at 0.424. For the variant C82U A111G A120C C169A U176G, the reverse-splicing fitness came to 0.00425. Consider C82A A111G A145U C150G U176G, for which the reverse-splicing fitness was 0.0047. As to C82A A111C A120G A145C C150U U176G, the reverse-splicing fitness is 0.00502. Consider C82G A120U A145U C150A C169G U176G, for which the reverse-splicing fitness turned out to be 0.00134. In the case of C82A A111C A120G C150U U176G, the reverse-splicing fitness came to 0.00673. As for C82U A111C C150U C169U U176C, the figure is 0.0145; as for A111U A120U A145G C150G C169U U176C, 0.00615. Turning to C82U A111U A120G A145U C150U C169U U176G, the reverse-splicing fitness turned out to be 0.00432. Take C82U A111C A145G C150G U176A: the reverse-splicing fitness amounted to 0.0105.

Turning to C82U A111U A120G C150U, the reverse-splicing fitness turned out to be 0.0114. Then C82A A111U A120U A145G C169G U176A, with 0.00391; and C82A A111G A145C C150A C169U U176G, with 0.00626. As for C82A A120C A145C U176A, the figure is 0.0359. Then C82G A111G A145U C150G C169U U176A, with 0.00966; and C82A A111G A145U C150A U176A, with 0.0241; and C82U A111G A145C C150G U176C, with 0.0249. For C82A A120C A145C C150A U176G, the reverse-splicing fitness worked out at 0.00599.

For the variant C82A A120U A145C C169U U176C, the reverse-splicing fitness turned out to be 0.00274. Take C82U A111G A120G A145U U176C: the reverse-splicing fitness was 0.0141. Regarding C82U A111C A120U A145G C150A U176A, the reverse-splicing fitness worked out at 0.00653. As for C82G A111C A145C C150U U176C, the figure is 0.044; as for A111G A120C A145U C150A C169G, 0.00748; as for C82U A111G A145C C169A U176A, 0.00798. For C82G A120U C150A C169G U176G, the reverse-splicing fitness is 0.00199. Then A120U A145C C150U U176G, with 0.167. C82U A111U A120G A145G: the reverse-splicing fitness was determined as 0.0162. Turning to A120C A145U C150A C169U U176G, the reverse-splicing fitness turned out to be 0.0079. Regarding C82U A111U A120U A145U C150U C169G U176A, the reverse-splicing fitness stood at 0.00276. Regarding A111U A120C A145U C150U C169A U176G, the reverse-splicing fitness was 0.0056. In the case of C82G A120U C150A C169U, the reverse-splicing fitness was 0.00426. Then A111G A120U A145U C150A C169G U176G, with 0.00159; and A111C A120U A145U C150A C169G U176A, with 0.00295; and C82A A111C A120G A145C C150G U176C, with 0.0141.

On to C82G A111G A120C C150A U176G, for which the reverse-splicing fitness stood at 0.0141.

For C82U A111U A120U U176G, the reverse-splicing fitness worked out at 0.00321. For the variant C82A A120U A145C C150U C169G U176G, the reverse-splicing fitness came out at 0.00196.

In the case of C82G A120U A145C C150A, the reverse-splicing fitness was 0.00856.

On to C82U A111C A120G A145U C169G U176G, for which the reverse-splicing fitness came to 0.00395. As for C82U A111G A120U C150G C169A U176C, the reverse-splicing fitness was 0.00364. As for C82U A120C A145G C169U, the figure is 0.0217; as for C82A A120U C150G C169U U176C, 0.00369; as for A111G A120U A145C C150G C169A U176G, 0.00216. As for C82A A111G C150U C169U U176A, the figure is 0.0148; as for C82A A111C A120U A145C C150G C169U U176G, 0.00285; as for A111C A145G C150A C169U U176G, 0.00843. With C82G A111C C150G U176C, the reverse-splicing fitness came to 0.0159.

On to C82G A120U A145C C150G C169G, for which the reverse-splicing fitness was 0.00253. As for C82U A111G A120U C150U C169A U176C, the figure is 0.00318; as for C82A C150A C169U U176G, 0.00672. Turning to C82A A111U A120C C150U C169G, the reverse-splicing fitness amounted to 0.00831.

For the variant A111C A120U C150U C169A, the reverse-splicing fitness came to 0.00639. As for C82U A145U C150G U176A, the figure is 0.0424.

For C82A A111G A145G C150U C169A U176G, the reverse-splicing fitness was determined as 0.00696. Then A111C A120G C169G, with 0.22; and C82A A120C A145U C150G C169U U176G, with 0.00519; and C82G A111U A120C A145G C150U C169A U176A, with 0.0177. Then A111C A120C A145U C150A C169A U176G, with 0.0061. Then A111G C150A C169A, with 0.0135; and A111G A120G A145G C150U, with 0.244; and C82G A111G A120C C150U C169U U176C, with 0.017.

In the case of A111C A120G C150G C169A U176C, the reverse-splicing fitness amounted to 0.0109. Then C82U A111U A145C C150U C169G U176C, with 0.0104. With A120U A145G C150G U176G, the reverse-splicing fitness is 0.013.

For the variant C82G C150A C169U U176G, the reverse-splicing fitness came out at 0.0071. Then A111C C150A C169A U176G, with 0.00777; and C82U A111U A120C A145C C150U U176G, with 0.00423. Then C82G A111C C150U C169A, with 0.0113; and A111U A120C A145U C150G C169G U176C, with 0.005. On to C82A A120G C150U C169U U176A, for which the reverse-splicing fitness is 0.0231.

C82U A111G A145C C150A C169A U176A: the reverse-splicing fitness worked out at 0.0104.

C82U A120U A145C C150U C169A U176A: the reverse-splicing fitness is 0.00242. Then C82G A120G C169G U176G, with 0.00375; and C82G A120G C169G U176C, with 0.0324.

In the case of C82A A120G A145G C150A C169A U176G, the reverse-splicing fitness was found to be 0.00558. Then C82A A111G A120C A145G C169U U176G, with 0.00528.

For the variant A111C A120U C150G U176G, the reverse-splicing fitness worked out at 0.00356. As for A111U A120U A145C C150G C169G, the reverse-splicing fitness turned out to be 0.00697.

Turning to C82G A111C A145G C150G C169G U176A, the reverse-splicing fitness was determined as 0.00869.

For the variant A111C A120U A145U U176A, the reverse-splicing fitness is 0.221.

Consider C82A A120C A145U U176G, for which the reverse-splicing fitness stood at 0.00885.

(Values after the RNAGym collection of RNA variant scans (doi:10.1093/molbev/msab373).)
